US20240115720A1, “ANTIBODY-PYRROLOBENZODIAZEPINE DERIVATIVE CONJUGATE” (MEMORIAL SLOAN KETTERING CANCER CENTER, priority 2021, published 2024)

Assays:
293 (negative control) = assay: Flow cytometry binding to 293 cells (negative control); conditions: 10 μg/ml
Procedure: The four monoclonal antibodies (6-G23-F, 2-C8-A, 7-I1-B and 10-O18-A) were tested for their ability to bind to mouse and cynomolgous DLL3 as well as endogenous human DLL3 by flow cytometry. For this purpose, HEK293 cells were transfected with plasmid DNA encoding full-length human, mouse or cynomolgous DLL3 and used in the experiment. Briefly […] transfected HEK293 cells or NCI-H82 primary cells were added in FACS buffer PBS 0.5% BSA to the wells of a 96 well U bottom plate and purified monoclonal added to 10 μg/ml. After 30 minutes incubation at 4° C. the cells were washed 3 times in FACS buffer and incubated with a PE labelled F(ab)2 anti-mouse IgG H and L 2nd stage. After another 30 minutes incubation at 4° C. the cells were washed three times in FACS buffer and analyzed on the flow cytometer. Data are presented at the ratio of the Mean Fluorescent Intensity for the monoclonal divided by the background staining with the 2nd stage.

[1] = biological target: T1, Histidine-tagged DLL3 antigen (DLL3-His) (Homo sapiens, UniProt Q9NYJ7); assay: Pairwise epitope binning, Carterra array SPR; conditions: pairwise competition for binding to DLL3-His
T1 sequence (Q9NYJ7 27-479): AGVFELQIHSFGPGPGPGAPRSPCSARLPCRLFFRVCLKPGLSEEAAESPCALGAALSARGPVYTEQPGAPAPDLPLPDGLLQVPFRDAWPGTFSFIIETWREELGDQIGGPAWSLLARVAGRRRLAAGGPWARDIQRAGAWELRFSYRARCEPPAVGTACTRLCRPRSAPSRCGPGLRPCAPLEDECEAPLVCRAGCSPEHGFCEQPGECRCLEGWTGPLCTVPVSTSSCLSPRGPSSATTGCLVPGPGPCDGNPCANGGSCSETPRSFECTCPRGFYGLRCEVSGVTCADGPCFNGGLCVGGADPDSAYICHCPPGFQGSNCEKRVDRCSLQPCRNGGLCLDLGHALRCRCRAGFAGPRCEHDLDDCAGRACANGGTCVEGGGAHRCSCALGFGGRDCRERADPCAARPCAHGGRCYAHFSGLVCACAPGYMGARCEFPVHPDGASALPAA
Procedure: The panel of purified anti-DLL3 monoclonal antibodies and the reference monoclonal antibody were subjected to pairwise epitope binning on a Carterra® array surface plasmon resonance (SPR) assay platform (Carterra® Inc., Salt Lake City UT) where each monoclonal antibody was tested for the capture of Histidine-tagged DLL3 antigen (DLL3-His), and also for competing with every other antibody in the panel for the binding to DLL3-His. The antibodies were immobilized on a HC200M chip (ligand) through standard amine coupling techniques by the print array method. Then in each cycle antigen was injected across the entire array followed by a single antibody (analyte). At the end of each cycle the surface was regenerated to remove antigen and analyte before a new cycle started. As shown in the Table below, three different bins were identified with the panel with 7-I1-B and 2-C8-A mapping to bin 2 while 6-G23-F was in bin 3 and 10-O18-A was in bin 1.

DLL3 [2] = biological target: T2, DLL3 (Homo sapiens, UniProt Q9NYJ7); assay: Selectivity of binding among delta-like ligands (FIG. 11)
T2 sequence (Q9NYJ7 27-618): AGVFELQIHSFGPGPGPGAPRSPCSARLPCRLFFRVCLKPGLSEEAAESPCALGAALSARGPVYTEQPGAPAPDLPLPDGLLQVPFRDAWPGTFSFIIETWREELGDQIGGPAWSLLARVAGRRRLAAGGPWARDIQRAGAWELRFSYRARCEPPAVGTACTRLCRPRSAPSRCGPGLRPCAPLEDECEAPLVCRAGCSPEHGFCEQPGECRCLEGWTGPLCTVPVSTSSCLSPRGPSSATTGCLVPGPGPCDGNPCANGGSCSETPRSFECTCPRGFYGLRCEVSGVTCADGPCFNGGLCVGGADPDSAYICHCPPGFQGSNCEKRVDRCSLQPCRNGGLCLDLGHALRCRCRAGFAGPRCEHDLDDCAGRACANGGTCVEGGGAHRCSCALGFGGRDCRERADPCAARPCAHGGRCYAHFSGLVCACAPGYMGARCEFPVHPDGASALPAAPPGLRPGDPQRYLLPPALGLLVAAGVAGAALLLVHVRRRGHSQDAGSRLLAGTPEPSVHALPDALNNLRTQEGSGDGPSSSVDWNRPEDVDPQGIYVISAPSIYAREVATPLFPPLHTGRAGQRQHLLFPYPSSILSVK

DLL4 = DLL4 (Homo sapiens, UniProt Q9NR61); assay: as above
DLL1 = biological target: T3, DLL1 (Homo sapiens, UniProt O00548); assay: as above
T3 sequence (O00548 18-723): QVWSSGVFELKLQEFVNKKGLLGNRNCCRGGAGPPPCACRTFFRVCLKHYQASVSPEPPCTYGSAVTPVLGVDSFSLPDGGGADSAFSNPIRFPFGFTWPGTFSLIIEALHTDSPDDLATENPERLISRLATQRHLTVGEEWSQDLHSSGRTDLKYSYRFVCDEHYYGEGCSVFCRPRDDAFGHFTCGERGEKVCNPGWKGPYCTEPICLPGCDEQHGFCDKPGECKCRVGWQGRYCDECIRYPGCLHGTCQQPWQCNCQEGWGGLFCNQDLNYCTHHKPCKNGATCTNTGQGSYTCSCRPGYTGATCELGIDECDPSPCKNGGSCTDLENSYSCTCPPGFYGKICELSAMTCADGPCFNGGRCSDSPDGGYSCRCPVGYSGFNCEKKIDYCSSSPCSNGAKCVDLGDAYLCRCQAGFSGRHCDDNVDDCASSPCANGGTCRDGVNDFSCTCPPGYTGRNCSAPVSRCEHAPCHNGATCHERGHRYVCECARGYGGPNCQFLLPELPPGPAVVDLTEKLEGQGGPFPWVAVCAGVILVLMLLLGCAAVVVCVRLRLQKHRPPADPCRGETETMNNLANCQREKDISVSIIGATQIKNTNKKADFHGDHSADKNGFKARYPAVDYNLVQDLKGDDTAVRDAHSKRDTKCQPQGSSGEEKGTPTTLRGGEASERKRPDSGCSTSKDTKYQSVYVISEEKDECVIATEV

DLL3 [3] = biological target: T2, DLL3; assay: 4/37 internalization assay (staining at 4° C. versus 37° C., flow cytometry); assay type: cell-based; parameters: endogenous in cells; host or cells: NCI-H82; conditions: NCI-H82 cells, compared with reference monoclonal antibody SC16
Procedure: The four monoclonal antibodies (6-G23-F, 2-C8-A, 7-I1-B and 10-O18-A) were compared for their ability to internalize DLL3 by comparing the staining at 4° C. with that at 37° C. A reference monoclonal antibody SC16, which is known to internalize via DLL3 and to have ADC activity, and which was previously reported in the literature, was used as the positive control for internalization. NCI-H82 cells in exponential growth were harvested with trypsin/EDTA, washed once in RPMI containing 10% fetal calf serum (FCS) and resuspended in DMEM supplemented with 10% FCS at 2×10^7 cells/ml. 100 μl (2×10^6 cells) were added to U bottom 96 well plates. The test monoclonal antibodies (6-G23-F, 2-C8-A, 7-I1-B or 10-O18-A) or the reference monoclonal antibody were added to separate wells to give a final concentration of 10 μg/ml in duplicate plates. […] After 30 minutes incubation at 4° C. the cells were washed three times in cold wash buffer and either fixed in PBS 0.5% paraformaldehyde and analyzed by flow cytometry within 48 hours. The mean fluorescent intensity (MFI) ratios calculated by dividing the MFI obtained from the control plate (which incubated with the antibodies at 4° C.) by the corresponding MFI obtained from the experimental plate (which incubated with the antibodies at 37° C.) was taken as a relative measure of internalization. […]

Sequence of DLL4 (Q9NR61 27-685): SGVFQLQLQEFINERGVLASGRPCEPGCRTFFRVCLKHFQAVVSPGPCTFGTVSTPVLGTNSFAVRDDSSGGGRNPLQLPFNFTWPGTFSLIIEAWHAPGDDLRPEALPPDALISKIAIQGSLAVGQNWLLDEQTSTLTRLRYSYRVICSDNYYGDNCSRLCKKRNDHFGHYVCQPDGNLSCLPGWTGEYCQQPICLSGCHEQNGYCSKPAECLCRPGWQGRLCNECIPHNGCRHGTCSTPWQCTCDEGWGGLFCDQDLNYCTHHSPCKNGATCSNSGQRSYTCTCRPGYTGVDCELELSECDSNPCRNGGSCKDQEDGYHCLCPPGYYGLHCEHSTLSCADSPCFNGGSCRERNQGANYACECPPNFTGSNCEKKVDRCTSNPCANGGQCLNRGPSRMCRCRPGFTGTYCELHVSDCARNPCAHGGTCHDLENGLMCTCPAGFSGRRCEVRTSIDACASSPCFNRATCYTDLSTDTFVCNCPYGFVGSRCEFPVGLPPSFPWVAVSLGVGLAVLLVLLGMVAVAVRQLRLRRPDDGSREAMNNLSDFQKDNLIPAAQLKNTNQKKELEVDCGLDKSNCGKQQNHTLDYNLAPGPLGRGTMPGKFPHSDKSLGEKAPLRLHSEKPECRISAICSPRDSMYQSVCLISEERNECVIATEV

B1: 2-C8-A: anti-DLL3 monoclonal antibody, VH SEQ ID NO: 12 and VL SEQ ID NO: 17 (antibody, V domains shown)
VH: EVQLVESGGGLVQPGGSQRLSCAASGFTFSSYWMNWVRQAPGKGLEWVANIKEDGSEKYYVDSVKGRFTISRDNAKNSLYLQMNSLRAEDTAVYYCARDPGWAPFDYWGQGTLVTVSS
VL: DIQMSQSPSSLSASVGDRVTITCRASQGISNYLAWFQQKPGKAPKSLIYAASSLQSGVPSKFSGSGSGTDFTLAISSLQPEDFATYYCQQYNSFPYTFGQGTTLEIK
293 (negative control) (ratio of MFI for the monoclonal divided by background staining with the 2nd stage) (293 (negative control)): 0.59 | Epitope Bin [1]: 2 | binding to DLL3 (DLL3 [2]): selectively bind DLL3 | binding to DLL4 (DLL4): not DLL1 or DLL4 | binding to DLL1 (DLL1): not DLL1 or DLL4 | ability to internalize DLL3 (DLL3 [3]): able to internalize on binding DLL3 but not to the extent of the reference monoclonal antibody
